Assay [1] deals with SMN1, wild type, LUMIER fusion (UniProt Q16637). Nature of the assay: LUMIER. The settings on record: parent: est. 120000; read off a plot.
For assay [2], the target named is synaptotagmin binding cytoplasmic RNA interacting protein (SYNCRIP), wild type, LUMIER fusion. Nature of the assay: LUMIER. To be noted: read off a plot.

Chain of SMN1, wild type, LUMIER fusion (from UniProt Q16637) SMN1 DD MT (Q16637 whole entry, change not shown, the tested form may be a part): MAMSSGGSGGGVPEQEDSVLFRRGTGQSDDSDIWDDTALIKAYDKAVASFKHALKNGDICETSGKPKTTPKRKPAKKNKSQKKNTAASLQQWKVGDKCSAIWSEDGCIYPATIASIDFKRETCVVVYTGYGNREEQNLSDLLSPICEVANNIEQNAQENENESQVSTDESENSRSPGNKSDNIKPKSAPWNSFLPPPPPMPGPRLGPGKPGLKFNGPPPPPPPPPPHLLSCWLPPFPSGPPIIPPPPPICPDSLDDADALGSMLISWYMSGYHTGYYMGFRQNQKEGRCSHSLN
Chain of SMN1, wild type, LUMIER fusion (UniProt Q16637) (Q16637 whole entry, the tested form may be a part): as the sequence (Q16637 whole entry, change not shown, the tested form may be a part) above

Regarding “SMN1, wild type, LUMIER fusion (from UniProt Q16637) SMN1 DD MT”, the response in assay [1] came to 37000 RU; in assay [2] (parent: est. 180000) it was 110000 RU. With “SMN1, wild type, LUMIER fusion (from UniProt Q16637) Y127L”, the response in assay [2] (parent: est. 180000) is 91000 RU. As to “PHF1, wild type, LUMIER fusion (from UniProt O43189) Y47A”, in assay [2] (parent: est. 100000), the response was found to be 32000 RU.

Values taken from paper PMC6238616.
